From article PMC11858715 (Molecules, 2025)

Experiments:
Assay in all cases: other fluorescence titration
Details in all cases: both partners purified
[1] = molecular target: T1, sense peptide S2 (YIYRNYPDF), ammodytoxin A segment from position 115 to 124 (Vipera ammodytes)
T1 peptide: YIYRNYPDF

[2] = molecular target: T1, sense peptide S2 (YIYRNYPDF), …
[3] = molecular target: T2, sense peptide S1 ([…]), ammodytoxin A segment from position 6 to 11 (Vipera ammodytes)
T2 construct: source: synthetic peptide, bought: GenScript Biotech B.V

B1: antisense peptide S2A1 (INISIVGVK) (designed binder)
peptide: INISIVGVK
- stoichiometry N [1]: 1
- Kd [2]: 1.1 µM

B2: antisense peptide S2A2 (VNISVIGIK) (designed binder)
peptide: VNISVIGIK
- stoichiometry N [1]: 1
- Kd [2]: 8.9 µM

B3: antisense peptide S1A2 (SHHYSP) (designed binder)
peptide: SHHYSP
- Kd [3]: 1.4 µM

B4: antisense peptide S1A1 (SHHYEP) (designed binder)
peptide: SHHYEP
notes: source: synthetic peptide, bought: GenScript Biotech B.V
- Kd [3]: 4.9 µM
